These results are taken from paper doi:10.1101/2023.05.30.542831.

The target of the experiment is APB-R3, long-acting recombinant human IL-18BP linked to the human albumin-binding Fab fragment SL335 (human). The experiment is described as follows: SPR. On the technique in general: In SPR one partner is held on a chip, and binding of the other changes the refractive index at the surface.

Usually Kd stands for the free concentration of one partner at which half of the binding sites on the other are occupied at equilibrium, for simple one-to-one binding. With “human IL-18 (from UniProt Q14116 37-193) (ligand)”, the Kd came out at 0.0609 nM.
